B1: P13G05 Fab (Fab, V domains shown)
VH: QVQLQQSGAELVKPGASVELSCTASGFNIRDTYMYWVKQRPEQGLEWIGRIDPANGNTKFDPKFQDRATMTADTSSNTAYLQLSSLTSEDTAVYYCTTYFYRYDVGGFDYWGQGTTLTVS
VL: EIVLTQSPALMAASPGEKVTITCSVSSSISSSNLHWYQQKSGTSPKLWIYGTSNLASGVPVRFSGSGSGTSYSLTISSMEAEDAATYYCQQWSSYPFTFGSGTKLEIK
notes: Murine Fab, periplasmic extract
B2: P13C10 Fab (Fab, V domains shown)
VH: QVQLQQSGAELVKPGASVELSCTASGFNIRDTYMYWVKQRPEQGLEWIGRIDPANGNTKFDPKFQDRATMTADTSSNTAYLQLSSLTSEDTAVYYCTTYFYRYDVGGFDYWGQGTTLTVS
VL: ENVLTQSPALMAASPGEKVTITCSVSSSISSSNLHWFQQKSGTSPKLWIYGTSNLASGVPVRFSGSGSGTSYSLTISSMEAEDAATYYCQQWSSYPFTFGSGTKLEIK
notes: as for B1
B3: P16D04 Fab (Fab, V domains shown)
VH: QVQLQQSGAELVKPGASVELSCTASGFNIRDTYMYWVKQRPEQGLEWIGRIDPANGNTKFDPKFQDRATMTADTSSNTAYLQLSSLTSEDTAVYYCTTYFYRYDVGGFDYWGQGTTLTVS
VL: ENVLTQSPALMAASPGEKVTITCSVSSSISSSNLHWYQQKSGTSPKLWIYGTSNLASGVPVRFSGSGSGTSYSLTISSMEAEDAATYYCQQWSSYPLTFGAGTKLELK
notes: as for B1
B4: P14G01 Fab (Fab, V domains shown)
VH: QVQLKESGAELVKPGASVELSCTASGFNIRDTYMYWVKQRPEQGLEWIGRIDPANGNTKFDPKFQDRATMTADTSSNTAYLQLSSLTSEDTAVYYCTTYFYRYDVGGFDYWGQGTTLTVS
VL: DIVLTQSPALMAASPGEKVTITCSVSSSISSSNLHWFQQKSGTSPKLWIYGTSNLASGVPVRFSGSGSGTSYSLTISSMEAEDAATYYCQQWSSYPFTFGSGTKLEIK
notes: as for B1
B5: P01A12 Fab (Fab, V domains shown)
VH: EVQLQQSGAELVKPGASVKLSCTASGFNIKDTYMYWVKQRPEQGLDWIGRIDPANGNTKFDPKFQGKATITADTSSNTAYLQLSSLTSEDTAVYYCSTYYYRYDVGGFDYWGQGTTLTVS
VL: DIVLTQSPALMAASPGEKVTITCSVSSSISSSNLHWYQQKSGTSPKLWIYGTSNLASGVPVRFSGSGSGTSYSLTISSMEAEDAATYYCQQWSSYPFTFGSGTKLEIK
notes: as for B1
B6: P13F06 Fab (Fab, V domains shown)
VH: QVQLQQSGAELVKPGASVELSCTASGFNIRDTYMYWVKQRPEQGLEWIGRIDPANGNTKFDPKFQDRATMTADTSSNTAYLQLSSLTSEDTAVYYCTTYFYRYDVGGFDYWGQGTTLTVS
VL: EILLTQSPALMAASPGEKVTITCSVSSSISSSNLHWYQQKSGTSPKLWIYGTSNLASGVPVRFSGSGSGTSYSLTISSMEAEDAATYYCQQWSSYPFTFGSGTKLEIK
notes: as for B1
B7: P13A04 Fab (Fab, V domains shown)
VH: QVQLQQPGAELVKPGASVELSCTASGFNIRDTYMYWVKQRPEQGLEWIGRIDPANGNTKFDPKFQDRATMTADTSSNTAYLQLSSLTSADTAVYYCTTYFYRYDVGGFDYWGQGTTLTVS
VL: DIVLTQSPALMAASPGEKVTITCSVSSSISSSNLHWYQQKSGTSPKLWIYGTSNLASGVPVRFSGSGSGTSYSLTISNMEAEDAATYYCQQWSSYPFTFGSGTKLEIK
notes: as for B1
B8: P14F01 Fab (Fab, V domains shown)
VH: QVQLQQSGAELVKPGASVELSCTASGFNIRDTYMYWVKQRPEQGLEWIGRIDPANGNTKFDPKFQDRATMTADTSSNTAYLQLSSLTSEDTAVYYCTTYFYRYDVGGFDYWGQGTTLTVS
VL: ENVLTQSPALMAASPGEKVTITCSVSSSISSSNLHWYQQKSGTSPKLWIYGTSNLASGVPVRFSGSGSGTSYSLTISSMEAEDAATYYCQQWSTYPFTFGSGTKLEIK
notes: as for B1
B9: P13B01 Fab (Fab, V domains shown)
VH: EVQLQQSGAELVKPGASVKLSCTASGFNIKDTYIYWVKQRPERGLEWIGRIDPANGNTKFDPKFQGTATITADTSSNTAYLQLSSLTSEDTAVYYCTTYFYRYDVGGFDYWGQGTTLTVS
VL: ENVLTQSPALMAASPGEKVTITCSVSSSISSSNLHWYQQKSGTSPKLWIYGTSNLASGVPVRFSGSGSGTSYSLTISSMEAEDAATYYCQQWSSYPFTFGSGTKLEIK
notes: as for B1
B10: P13D05 Fab (Fab, V domains shown)
VH: QVQLQQPGAELVKPGASVELSCTASGFNIRDTYMYWVKQRPEQGLGWIGRIDPANGNTKFDPKFQDRATMTADTSSNTAYLQLSSLTSEDTAVYYCTTYFYRYDVGGFDYWGQGTTLTVS
VL: EIVLTQSPALMAASPGEKVTITCSVSSSISSSNLHWFRQKSGTSPKLWIYGTSNLASGVPVRFSGSGSGTSYSLTISSMEAEDAATYYCQQWSSYPFTFGSGTKLEIK
notes: as for B1
B11: P13C06 Fab (Fab, V domains shown)
VH: QVQMKQSGAELVKPGASVELSCTASGFNITDTYMYWVKQRPEQGLEWIGRIDPANGNTKFDPKFQDRATMTADTSSNTAYLQLSSLTSEDTAVYYCTTYFDKYDVGGCDYWGQGTTLTVS
VL: EIVLTQSPALMAASPGEKVTITCSVSSSISSSNLYWFQHKSGTSPKLWIYGTSNLASGVPVRFSGSGSGTSYSLTISSMDAENAATYYCQQWRSYPFTFGSGTKLEIK
notes: as for B1
B12: P15C02 Fab (Fab, V domains shown)
VH: QVQLQQSGAELVKPGASVELSCTASGFNIRDTYMYWVKQRPEQGLEWIGRIDPANGNTKFDPKFQDRATMTADTSSNTAYLQLSSLTSEDTAVYYCTTYFYRYDVGGFDYWGQGTTLTVS
VL: DVVMTQTPALMAASPGEKVTITCSVSSSISSSNLHWYQQKSGTSPKLWIYGTSNLASGVPVRFSGSGSGTSYSLTISSMEAEDAATYYCQQWSSYPFTFGSGTKLEIK
notes: as for B1
B13: P15G05 Fab (Fab, V domains shown)
VH: EVQLQQSGAELVKPGASVELSCTASGFNIRDTYMYWVKQRPEQGLEWIGRIDPANGNTKFDPKFQDRATMTADTSSNTAYLQLSSLTSEDTAVYYCTTYFYRYDVGGFDYWGQGTTLTVS
VL: EIVLTQSPALMAASPGEKVTITCSVSSSISSSNLHWYQQKSGTSPKLWIYGTSNLASGVPVRFSGSGSGTSYSLTISSMEAEDAATYYCQQWSSYPLTFGAGTKLELK
notes: as for B1
B14: P13G01 Fab (Fab, V domains shown)
VH: EVQLQQSGAELVKPGASVELSCTASGFNIRDTYMYWVKQRPEQGLEWIGRIDPANGNTKFDPKFQDRATMTADTSSNTAYLQLSSLTSEDTAVYYCTTYFYRYDVGGFDYWGQGTTLTVS
VL: QIVLTQSPALMAASPGEKVTITCSVSSSISSSNLHWYQQKSGTSPKLWIYGTSNLASGVPVRFSGSGSGTSYSLTISSMEAEDAATYYCQQWSSYPFTFGSGTKLEIK
notes: as for B1
B15: P13G04 Fab (Fab, V domains shown)
VH: EVKLMESGAELVKPGASAELSCTASGFNIRDTYMYWVKQRPEQGLEWIGRIDPANGNTKFDPKFQDRATMTADTSSNTAYLQLSSLTSEDTAVYYCTTYFYRYDVGGFDYWGQGTTLTVS
VL: ENVLTQSPALMAASPGEKVTITCSVSSSISSSNLHWFQQKSGTSPKLWIYGTSNLASGVPVRFSGSGSGTSYSLTISSMEAEDAATYYCQQWSSYPFTFGSGTKLEIK
notes: as for B1

What was measured:
human LAG-3 = target: T1, human LAG-3 (human, UniProt P18627 23-450, limits assumed); assay: Fab phage display selection; periplasmic extracts screened by ELISA or flow cytometry
T1 construct: Selections used human LAG-3-Fc, human LAG-3-6His, a 30 aa LAG-3 peptide and/or cells with cynomolgus LAG-3; also called CD223
T1 sequence (looked up): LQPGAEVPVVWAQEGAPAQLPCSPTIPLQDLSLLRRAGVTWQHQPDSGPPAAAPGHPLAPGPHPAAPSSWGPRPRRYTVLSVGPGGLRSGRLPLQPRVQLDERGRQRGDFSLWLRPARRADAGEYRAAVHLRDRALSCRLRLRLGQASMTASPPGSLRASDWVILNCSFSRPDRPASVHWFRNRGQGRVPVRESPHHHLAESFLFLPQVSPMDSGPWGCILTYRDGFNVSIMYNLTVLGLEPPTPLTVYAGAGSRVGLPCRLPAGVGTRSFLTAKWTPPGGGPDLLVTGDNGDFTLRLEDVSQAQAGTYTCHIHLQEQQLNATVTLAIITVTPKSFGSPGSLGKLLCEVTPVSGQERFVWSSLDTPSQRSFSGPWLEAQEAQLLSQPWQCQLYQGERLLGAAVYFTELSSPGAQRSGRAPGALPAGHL
Source text: Anti-LAG-3 antibodies were identified by generation and selection of an immunized Fab phage display library. […] Per mouse, a Fab library was then generated by random-primed cDNA using total RNA as a template to amplify variable regions from mouse antibody genes. Heavy and kappa chain amplicons were combined and cloned into phagemid vectors. […] The 30 amino acid human LAG-3 peptide is a biotinylated peptide comprising the amino acid sequence of […] (SEQ ID NO: 199). Periplasmic extracts of selected Fab clones were then screened by ELISA or flow cytometry. Antibody sequencing and off-rate analysis were then performed on anti-LAG-3 Fabs.

[1] = target: T2, human LAG-3 expressed on cells (human, UniProt P18627 23-525); assay: flow cytometry, Fab periplasmic extract on Jurkat cells expressing human LAG-3 (FIGS. 1A-1C)
T2 construct: whole, on cells; also called CD223
T2 sequence (looked up): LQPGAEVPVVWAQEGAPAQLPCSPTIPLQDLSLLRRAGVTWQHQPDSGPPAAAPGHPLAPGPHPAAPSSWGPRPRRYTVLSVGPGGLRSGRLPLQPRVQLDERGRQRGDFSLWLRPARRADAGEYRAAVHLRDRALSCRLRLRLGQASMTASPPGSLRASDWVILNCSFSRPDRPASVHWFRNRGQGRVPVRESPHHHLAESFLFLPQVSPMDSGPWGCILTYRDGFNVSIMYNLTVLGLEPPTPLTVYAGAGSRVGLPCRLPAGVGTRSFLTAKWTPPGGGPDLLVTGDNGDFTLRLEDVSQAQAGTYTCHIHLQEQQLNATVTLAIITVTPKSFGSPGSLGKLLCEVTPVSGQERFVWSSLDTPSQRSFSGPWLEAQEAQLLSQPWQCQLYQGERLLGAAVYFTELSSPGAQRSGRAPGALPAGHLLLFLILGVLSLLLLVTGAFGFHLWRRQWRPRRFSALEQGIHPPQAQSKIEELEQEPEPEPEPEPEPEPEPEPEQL
Experimental: The anti-LAG-3 Fabs from periplasmic extracts were tested for binding to LAG-3-expressing cells using flow cytometry. Briefly, wild type and human LAG-3-expressing Jurkat cells were plated at 2×10⁵ cells/well in sample buffer (PBS (Gibco, Cat #10010-015)+0.5% FBS (Gibco, Cat #10270-106)) in 96-well U-bottom plates (Sarstedt). 22 μl of anti-LAG-3 Fab periplasmic extract and 83 μl of diluted anti-c-myc antibody (Gentaur, Clone #9E10, Cat #04-cmyc-9E10) were incubated for 30 minutes at room temperature. 100 μl of the periplasmic extract/anti-c-myc mixture was added to cells and then incubated for one hour on ice. Cells were washed three times and then incubated with a goat anti-mouse APC (BD Biosciences, Cat #550826) for 30 minutes on ice. Cells were washed three times and then analyzed with a FACS machine (BD Accuri6).

| Binder | binding result (human LAG-3) | binding result [1] |
| --- | --- | --- |
| B1 | binds | binds |
| B2 | binds | binds |
| B3 | binds | binds |
| B4 | binds | binds |
| B5 | binds | binds |
| B6 | binds | binds |
| B7 | binds | binds |
| B8 | binds | binds |
| B9 | binds | binds |
| B10 | binds | binds |
| B11 | binds | binds |
| B12 | binds | binds |
| B13 | binds | binds |
| B14 | binds | binds |
| B15 | binds | binds |

From US20250206818A1 (AGENUS, published 2025)
